# Laboratory results as given in the DeepSol protein solubility set.
# Test: soluble on expression in E. coli; label from the status in PepcDB or PDB records
row,Sequence,soluble on expression in E. coli
1,MGSDKIHHHHHHAQQQELPVPKPHQLKWHEAEMGAVFHYDLHVFDGIRYGQGNNRINPIEDYNIFNPTELNTDQWVQAAKAAGCKFAVLTATHETGFGLWQSDVNPYCLKAVKWRDGKGDIVRDFVNSCRKYGLQPGIYIGIRWNSLLGIHNFKAEGEGAFARNRQAWYKRLCEKMVTELCTRYGDLYMIWFDGGADDPRADGPDVEPIVNKYQPNCLFYHNIDRADFRWGGSETGTVEYPCWSTFPVPCSHHKRIESSIDQLELLKHGDKNGRYWVPAMADTPLRGANGRHEWFWEPDDENNIYPLNTLMDKYEKSVGRNATLILGLTPDPTGLIPAGDAQRLKEMGDEINRRFSSPIARISGQKKSLTLKLGKEQSVNYCIIQENIKNGERIRQYQIEAKVNGKWQTVCKGESVGHKRIEKFEPVEATALRLTVSESIALPDIINFSAYSVK,not soluble
2,MGSDKIHHHHHHAQTLPFRLSKGAGTFRLGVVCGNESCWLDQCSVKKKGQAYTIKDKLWKEGEIKLIVCPLTDSNGFIMEVSGERLPEEFKLCWAFGACDGADDSAVTDNSIPVASCFHNVFSIEGNAFTTYYGESMKLRTVHGVSPIGSEIRLSDGHKQASPLALFNSGKKTDAPVISALCPWKPQEKLYFCFYQRGDYNYFMLPGLFGKEHKTRSK,not soluble
3,MGSDKIHHHHHHAQTTDPNQLKNEGNDALNAKNYAVAFEKYSEYLKLTNNQDSVTAYNCGVCADNIKKYKEAADYFDIAIKKNYNLANAYIGKSAAYRDMKNNQEYIATLTEGIKAVPGNATIEKLYAIYYLKEGQKFQQAGNIEKAEENYKHATDVTSKKWKTDALYSLGVLFYNNGADVLRKATPLASSNKEKYASEKAKADAAFKKAVDYLGEAVTLSPNRTEIKQMQDQVKAMIK,not soluble
4,MGSDKIHHHHHHAVSAEEAKELGHKLTEFGAEKAGNADGSIPPYTGGVKDLAIPADFKPGSGHYPDPFKDEKPLVSITKANEAQYAEFLMPGTKALLERLPGFRIDVYKTHRTMAYPDWVLKNTVGCARTAKLVGSVTGDGVEGAFACIPFPIPKNGYEVMWNQNLRYQGVRTDFRFRTILIDESGHKTLMGDNETQFIYQYYDRNGSKLPDNFFRTGFTRFYGPPSEVGMMTLAKYSINDGTDDDTTWIYMPGQRRVRVAPEYKYDTPMAAIGGTLLFDEVGGFQGRMDRFDFKLVGKKEMFVPYNNYRAYNSSDLVGDKYANPDDVRWEKHRVWVVEATLKPGERNIYSHRTYYIDEDTWLIVGYEAYDQSNALYRAGYTLDIVPYDKPRVGQPNAIMYDLTKGNYSVTADQGTPSQHMIPFDDLPNMGNYNTQALLNAGVR,not soluble
5,MGSDKIHHHHHHCNFDGRPCCWANVPPPDDQLDWQIASGVPVQLQNRGVPQPEGSYLIAYAKSAAPSDEAQFASCSIGCASSDIVVRAKHWQSESVLLQVCLRESFPSNAERNPLINCQEFPYVDGMGTTEVILPKTSLVDIVFVASNFIGDQGDVAILDDIEVSYDRNGSECQN,not soluble
6,MGSDKIHHHHHHCSCNDLLDEKAYDFVSPEQLGDSESAASQLVTGAYNTVITSFIAPGSYLYLTNMDCDYASGASWAFGNVGAGNPQGFWGIDHMWQGSYTLIHRANLGISKISAMSNLSQESKQDALAQLCFLKAWAYFNLVRNYGPVPIFRKSISEGEAMSQPRASVSDVYAHIIELLEQAEGMYSKDDAGFVVGHASNGAAKALLAKVYVTMASGAMSGVPIVVKGGNPNIFEPQPITHIAKTVAGYESFDPAKYYALARDKAWEVINEYTLFDNYMDVWAIGNRNKGEHIWMAQAISGDKDFGNTICQDYVGIFKEDGTMEGNWYGMRDHWYLLFEEQDKRIVDGVIHRYASDGISNGKVIYNYYPRWYADKVENKEVYDSQGNAFDGTEVYHEGQGWTLAKLTKFTFVTDRKQKNSDFHFPLLRLPDIMLIYAEAVNELNGGPDAEAYNQVNRIRTRAHATPFSGMNQDEFRSAVLEERARELAYEADRRYDLFRWGIYLDVMNAIDMDEHNVTKRRLERNLLYPIPTSEVNSNDKIDSNNPGW,not soluble
7,MGSDKIHHHHHHDEEPKSTLTDVAYYKTQSQMESNVNYLYRTGAIGSYVDFGSAYIGPFASIQEELTGYFSNSYEGQEIVCRYTRELTRQQNTMQLASKMDKVWDDCYRGINVANGAIKHMPEVPMDQATADRLTAEAKFFRAFNYFYLVKTFGAVPFYTDPYELAENMELPRTETSTIYNQIESDLKDAMNVLPEATFAANGHRITKYVAAMTLTDVYMYQHKYAEAAETVRIVVNSNHKLTTNDDLAMNSAFNKLRSTDDLDEAIYAYEYDNQISPSNWLPTYAFDGDASSNGLFGTYAITQKVHGPNDRYLNIYESNDLRRQPNQFYHWTYTNPKTGKVWNSVGNAACCWYYYDEDALLTTGRGTKDWNVYRYAEALLDAAESIAQSTGVTAEAAGYLAQVKARANMEGKTAAEIASSLQSMGKQAFIEECWTERLRELPLEFKMWDMCVRTGMFPNISETTPGQVTYIPLVGAKNASGATIKESDLLWPLSVNEIQRNPSLTQNEGYSAK,not soluble
8,MGSDKIHHHHHHENLYFQGMLYHLVMLEPEGEGAMDRIMEAMAILDGLAPELPGLTEFRHGPNRDFEQKSERYPYGFLCTFTDKAALDAYAVHPTHQRAGGMLVASCRNGADGILVVDLEV,soluble
9,MGSDKIHHHHHHENLYFQGMTQFKLIGFDLDGTLVNSLPDLALSINSALKDVNLPQASENLVMTWIGNGADVLSQRAVDWACKQAEKELTEDEFKYFKRQFGFYYGENLCNISRLYPNVKETLEALKAQGYILAVVTNKPTKHVQPILTAFGIDHLFSEMLGGQSLPEIKPHPAPFYYLCGKFGLYPKQILFVGDSQNDIFAAHSAGCAVVGLTYGYNYNIPIAQSKPDWIFDDFADILKITQ,soluble
10,MGSDKIHHHHHHENLYFQGMYPDLVHLGGADKYFEEILEIVNKIKLFGDFSNEEVRYLCSYMQCYAAPRDCQLLTEGDPGDYLLLILTGEVNVIKDIPNKGIQTIAKVGAGAIIGEMSMIDGMPRSASCVASLPTDFAVLSRDALYQLLANMPKLGNKVLIRLLQLLTARFRESYDRILPKTLGELI,soluble
11,MGSDKIHHHHHHESEDPWLVLQKAARAAHELSYKGVFIYQAGDNIKSVQITHTNSGQGEYARMVVLDGAPREVLSQGGDVVIFSSKNEKVIMEKRRAHNLFPAVLPDDMELLKANYQARIGGTERIAGRAGRVVFLDPRDGLRYAYKFWADCEYGLLLKSLMLSEQKQMLEQMAFSQLNMMEEQGMDWFHPSVDHSKHYILEEANAQLVQEASNWTVGALPVGYRKVEQVTRLVPGKSAPVTQVIFTDGLASVSLFIEPLSKGVRPRIGQTSKGATHFYANVSKGHQILVVGEVPAATVAQIGSAVSFK,not soluble
12,MGSDKIHHHHHHFDLEPSSSVPTDKVYKTADDFNVAVIGCYSKLQGQVSYFTECCEYRSDNLSLSAPTAGTQDRYDIDQFADKASNGILESAWANFNNGVYRCNLVLDKIDAADFDATLKKQYKGEALFVRALTYFNMYRLWGGIPMTDKVVTVAEALKIGRSSEQQVFDFLTGDLNQVINENMLPSSYTGTDTGRATSGAAMALLGKIYLTFHKWTEARNVLSQLIGRYSLMPTPDKVFDVDNKMNDEIIFAVRFNKDVEGEGHGYWFSIINLTDDTNQTKALKECYKDGDKRKDLITYVKVEDKVCVMNKFKDLKSATYNTVGNDQIILRYADVLLMYAEALNEISYSNSQTSDAMVALNAVHTRAGLSPVQITELADQDSFRKAIMLERQQEFPYEGHRWFDLVRMGGAKEAMKAEGHTIQDFQFLYPIPKTELERINNTELLWQNPGY,not soluble
13,MGSDKIHHHHHHGEDSEGSGTSGISPGGNSVSEEVLKHRSMVEKYAKESDILDYVPILLAIIQVESGGTMEDVMQSSESAGLPPNSLSTEASIKQGCIYFASLVKSSKELGCDQDSIIQAYNYGGGYLNYVAKNGKKHSFTLAESFSKEKSGGQKVDYPNPIAIKENGGWRYNYGNMFYCLLVKQYLTTTQFDDKTVQGIFDEAFKYEGTAYVFGGSSPATGFDCSGLTQWCYAKVGLKLPRVAQDQYDVMTHIDLKDAKPGDLIFFHSTYDAGTYVTHVGIYAGENRMFHAGNPVGWTNLTESYWQQHLIGAGRYN,not soluble
14,MGSDKIHHHHHHGMDKLSTKNYHTLLEVINDQEMIASPNTQLDSQVIANSSPFGGEVVTNRSKNIDGYTVEWSNLRSRYSFFRNSIDWNEVYPGSYYSSKNFYEYNRQTKQKVASFYNPAITNYYGGIKNELSELDKMENQVAEVAISFDKPYPYEEVRKMLPSNVNLVWLYVYSETVNEAEGPSGTLPYGFQLSMDDQNEIFDPENDKQHFFETLEKSPLFADNQEGQKFIQQNKNKKVEKLPIWGVMLTGQTKNFKALQNEPFVRGASIGVTAPIVPYIQPEK,not soluble
15,MGSDKIHHHHHHKDYKTFPDKYTLSSVDVGGMTAKEAKKAIKKAIDKYQIKVKLDDAEFEMNAEDLGLEYNEKADMQTLINAANRNKVPDKQVKLFNMKKGDEMQNALVDSYITAMTEAQTDSTSNTDNDTDDTKQADKSDAEIFDIKTVVPYRATITYNADAGQFEGVDGVSGDAPIYDKAATKLSSAVKEMKKKAELESSTGYVEGEKAADSDAVKKALKEADAYLDVTVQRHL,not soluble
16,MGSDKIHHHHHHLAGERENWFVSIPPRRGSVLDVRGRKIVYDSPEYVAYLDVDFFKRQNGDIKALEKTLQNCGITKSAEEVMEYKFFKLTEGEDKVDVLKKIESELLPFVNIELVYTRKKIQDYATGILLGTVIDGTGKGGIEGFFDDQLQGKRKGFLELRYRGARLSPTLVNYSPPENGKDVWLSLDLDLQRRVYDIISKAVEGNSAEAGHVIVMESKTGRILSMVTTRNWNDLIGGYIEPGSTIKPLVYAIALETHSASPDFTVECEGSIKPVEQLPVIIRDIEKHGLVDFSAGIVKSCNVMSVKVGELITEKTGVEGFYEWLRKVGFGEKTGIEMEGEIAGVLREPKKWSLIDPAEISIGQGIGVTPVQLIASLNIFANDGYWVKPTILKDSPVKKRRVFSKETTDVIRQAMVRVVEEGTGKLAQVKGIAIAGKTGTAQKAVGGEYRNLYHSLFVGFFPAEDPKYTILVHLDSPSGAFYGGEVAAPVFREIVEILTEKEDGRIRIVKGLMPDLRGLPVRDALLVLESLGVKDVEIKGKGWKVSEQTPPPNHPLEGPVILFLSDQK,not soluble
17,MGSDKIHHHHHHLANTKELGPLRILISRLLKKAGELCFTASDLTISKEQAKLITRGAPRFPYHTPHNMLFWLDESQYVDKCIIQHGKYESASTNLVQQFVKEGQTVLDIGGNIGYYTVMFSKIVGRSGKVITFEPTAHYRSILEKNVQENQINNVLIRPEGLSDKAEKLTISIGSSTATLHAPEGQQIDSYEAIQLARLDDLVEQLDITKLDFIKIDVDGHEPSVLRGAQQTIKKFKPLILLEVSHLHYLEGNVFAWDFYDYLSSLNYYIYDEHEMCRITRRSDFLIRCANFDRSCNILLSPTLLNEH,not soluble
18,MGSDKIHHHHHHLEEILKLKASDTASLEARGEANKKYGIQDFDTWVKRILSRINCSSVLDVCCGTGNQLTYYIQMPCTTNILGVDISKDSLKIARQRCEYLLSTNKKLTLKCCKMEEMFDDKEIDRQYDLISCFYGLYYAEDVDVIVERMIDHLNHKGVFLIVGPYGKNNASLFEIIQKHCMIPELVIKSSTTFMQEDLILKLVTLPGISVDTETFVNPILYPSPQAVMDYWQASTFYVPQYHSTIQQELEKRFENHDVFVVEKHIMAIIASKL,not soluble
